Measured values: patent publication US20250320288A1 (ELIXIRON IMMUNOTHERAPEUTICS HONG KONG, published 2025)

Target: recombinant human IFN-γ (human)
Assay: cell-based or functional assay

Sequence of recombinant human IFN-γ (human) (P01579 24-161): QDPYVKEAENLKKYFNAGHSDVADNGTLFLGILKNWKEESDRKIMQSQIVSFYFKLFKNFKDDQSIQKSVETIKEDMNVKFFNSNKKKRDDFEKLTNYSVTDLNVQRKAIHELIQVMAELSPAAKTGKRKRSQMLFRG

B1: EI-001 (2A6Q), human monoclonal anti-IFN-γ antibody (antibody, human IgG1, lambda, V domains shown)
VH: EVQLVESGGGLVKPGDSLTVSCVASGFTFSNYFIHWVRQAPGKGLEWVATISGRTKYMFYSDSLRGRFTVSRDNAQNSVYLHMSSLRGEDTALYYCVRGYDHSDSNSAADLLHWGRGTLVTVSS
VL: NFMLTQPLSVSGYPGKTIVISCVRSSGSVASHYVQWFQQRPGSAPAMVIYEDSHRPSGIPDRFSGSVDASSNSASLTISGLKTEDEADYFCQSYYGNNQVLFGGGTKLTVLG
In the case of B1, the “EC50 of EI-001 restoring viability of human primary melanocytes cultured with 30 ng/mL IFN-γ (CellTiter-Glo, 72 hrs)” value is reported as 0.00521 µg/mL and the “EC50 restoring melanogenesis (melanin content, absorbance at 470 nm) of human primary melanocytes cultured with 20 ng/mL IFN-γ for 7 days” value is reported as 0.129 µg/mL.
